Results from patent publication US20040248211A1, “ICAM-related protein” (priority 1992, published 2004).

B1: ICR-1.1: anti-ICAM-R monoclonal antibody, IgG2a, domain 1, ATCC HB 11053 (antibody, V domains shown)
VH: QVQLQQSGAELAKPGASVKMSCKASGYTFTVYWMHWVKQRPGQGLEWIGYINPNTDYTEYNQRFQDKATLTADKSSSTAYMQLSSLTSEDSAVYYCARWGGNSYGLDYWGQGTSVTVSS
VL: QIVLTQSPALMSASPGEKVTMTCSASSSVSYIYWYQQKPRSSPKPWIYLTSNLASGVPARFSGSGSGASYSLTISIMEAEDAATYYCQQWKSIPLTFGAGTKLELK
B2: ICR-8.1: anti-ICAM-R monoclonal antibody, IgG1, domain 1, ATCC HB 11232 (antibody, V domains shown)
VH: EIQLQQTGPELVKPGASVKISCKASGYSFTDCIILWVKQSHGKGLEWIGKINPYFGTTTYNLKFKGKATLTVDKSSSTAHMQLNSLTSEDSAVYYCARKEAYPDAMDYWGQGTSVTVSS
VL: DAVMTQTPLSLPVSLGDQASISCRSSQSLVHSNGDTYLHWYLQKPGQSPQLLIYKVSNRFSGVPDRFSGSGSGTDFTLKLSRVEAEDLGVYFCSQSTHVPYTFGGGTKLEIK

Assays:
ICAM-R on PBL = target: T1, ICAM-R on PBL (Homo sapiens, UniProt P32942); experiment: FACS-based competition assay; format: binding; settings: 5 μg antibody; equivalent on SKW3
T1 construct: endogenous in cells; host or cells: human peripheral blood leukocytes
T1 sequence (P32942 30-547): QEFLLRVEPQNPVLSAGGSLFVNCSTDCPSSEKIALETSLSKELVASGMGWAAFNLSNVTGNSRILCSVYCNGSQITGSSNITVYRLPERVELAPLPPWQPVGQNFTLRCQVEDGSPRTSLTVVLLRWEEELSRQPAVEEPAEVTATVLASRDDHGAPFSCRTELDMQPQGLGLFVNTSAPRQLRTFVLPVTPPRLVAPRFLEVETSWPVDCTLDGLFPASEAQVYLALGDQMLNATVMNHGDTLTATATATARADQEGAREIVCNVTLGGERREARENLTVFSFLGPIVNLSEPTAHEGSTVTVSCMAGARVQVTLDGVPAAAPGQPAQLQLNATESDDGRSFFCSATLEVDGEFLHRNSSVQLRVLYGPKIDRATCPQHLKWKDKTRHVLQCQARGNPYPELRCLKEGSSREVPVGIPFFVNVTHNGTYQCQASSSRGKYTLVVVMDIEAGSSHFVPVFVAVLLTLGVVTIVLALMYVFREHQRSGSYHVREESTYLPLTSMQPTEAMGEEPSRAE
Method: In the assays, human peripheral blood leukocytes (PBL) obtained by Ficoll Hypaque centrifugation of normal peripheral blood were washed twice in ice cold FACS buffer (PBS containing 0.1% sodium azide and 1% bovine serum albumin) and 2×10^5 cells were incubated in triplicate polypropylene tubes with 5 μg of each of the following antibodies ICR-1.1, ICR-4.2, and control isotype IgG (Sigma). All tubes containing the first stage antibodies were then incubated for 30 minutes at 4° C. and washed twice in cold FACS buffer. To each triplicate tube, 5 μg of each of the following second stage antibodies were added: biotinylated-ICR-1.1, biotinylated-ICR-4.2, biotinylated-anti-rat CD4 (negative control). All second stage antibodies were bibtinylated according to standard procedures as described in Example 12 and all tubes were then incubated for an additional 30 minutes at 4° C. before washing twice in FACS buffer. […] Finally, all tubes were washed twice in FACS buffer and analyzed by flow cytometry (FACScan, Becton-Dickinson).
SKW3 cells were labelled with either 1 μg of antibody ICR-1.1 or ICR-4.2, washed in FACS buffer and incubated with 1 μg biotinylated-ICR-1.1 or biotinylated ICR-4.2. All tubes were then washed in FACS buffer, incubated with Strepavidin-phycoerythrin for an additional 30 minutes at 4° C. and analyzed by FACScan.

PBL [1] = experiment: Detergent resistance (cytoskeleton association) assay, PBL; format: cell-based, human
Method: Experiments were conducted using freshly prepared human PBL or the human T lymphoblastoid cell line CEM-CCRF (ATCC CCL119). Briefly, freshly drawn human blood from healthy volunteer donors was diluted 1:1 with PBS and layered onto Sigma HistoPaque density separation medium. The gradients were centrifuged for 30 minutes at 1500 rpm (600×g) and the mononuclear cell fraction at the interphase was collected and washed three times with PBS. The cell pellet was resuspended in complete RPMI-1640 medium (Gibco, supplemented with L-glutamine, penicillin/streptomycin, sodium pyruvate, 2-mercaptoethanol, and 10% FBS) and plated onto tissue culture-treated petri dishes for adherent cell depletion. Plates were incubated 1-2 hours at 37° C., 5% CO2 after which nonadherent PBL were harvested and washed twice with ice-cold PBS. Conjugation of monoclonal antibodies to fluorescein using fluorescein isothiocyanate (FITC) was performed according to published procedures [see, e.g., Goding, J. Immunol. Meth., 13: 215 (1976)] and, in brief, involves incubation of purified antibody with an excess of FITC (Sigma) in 0.1M bicarbonate buffer pH 8.1 for 90 minutes at 37° C. followed by exhaustive dialysis against PBS to remove unreacted FITC. […]

PBL [2] = experiment: Pre-incubation on plate-bound antibody then SEA proliferation; format: cell-based, human; settings: cells moved to clean wells; SEA 10 pg/ml, 3 days
Method: The minimum time required for plate-bound anti-ICAM-R to inhibit SEA-induced proliferation was also determined. PBL were pre-incubated on plate-bound ICR-4.2, ICR-1.1 or isotype-matched anti-HLA-I control antibodies B-H9 (IgG1) and I0T2 (IgG2) with or without SEA (10 ρg/ml) for 3, 5 and 7 hours. PBL were then transferred to clean wells and cultured in the presence of SEA (10 pg/ml) for 3 days.

human PBL = experiment: SEA-induced aggregation of PBL; format: cell-based; settings: versus plate-bound B-H9
[3] = system: CD4+ T cells with allogeneic epidermal cells; experiment: Langerhans cell alloantigen presentation to CD4+ T cells; format: cell-based, human; settings: 50 μg antibody
Method: Blocking experiments were performed to determine whether the observed ICAM-R expression on Lcs was functionally important in antigen presentation. CD4^+ T cells were prepared from peripheral blood and 10^5 CD4^+ T cells were combined with 4×10^4 epidermal cells harvested from keratome biopsies of normal skin of an individual allogenic to the T cell donor. Proliferation was measured by ^3H thymidine uptake. Alloantigen presentation was unaffected by addition of 50 μg IgG1 isotype control. […] Inhibition was 73% of that produced by addition of anti-LFA-1 (anti-CD11a) antibody.

Row | Molecule | blocking of biotinylated-ICR-1.1 binding (ICAM-R on PBL) | blocking of biotinylated-ICR-4.2 binding (ICAM-R on PBL) | greater increase in detergent resistance, crosslinked antibody (PBL [1]) | SEA proliferation after 3 hours pre-incubation on immobilized antibody (PBL [2]) | SEA-induced cell aggregation, plate-bound antibody (human PBL) | inhibition relative to that produced by anti-LFA-1 (anti-CD11a) antibody [3] [%] | reduction in Lcs alloantigen-driven proliferative response of T cells [3] [%]
1 | B1 | did block binding of biotinylated-ICR-1.1 | did not block binding of monoclonal antibody ICR-4.2 | approximately 2 fold | significantly reduced proliferation | almost complete | – | –
2 | B2 | – | – | – | – | – | 73 | 47
